{
  "source": "patent US20220332818A1",
  "about": "(AstraZeneca / MedImmune, published 2022)",
  "biological_target": "T1, TIM-3 IgV domain (human) (human, UniProt Q8TDQ0 22-130)",
  "T1 construct": "also called IgV domain of TIM-3; human TIM-3 IgV",
  "T1 sequence": "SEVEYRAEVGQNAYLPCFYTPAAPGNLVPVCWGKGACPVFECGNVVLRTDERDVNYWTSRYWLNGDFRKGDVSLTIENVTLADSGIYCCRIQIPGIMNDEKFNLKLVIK",
  "assay": "co-crystal X-ray structure",
  "description": "To obtain the co-crystal structure of the TIM-3 IgV domain with antigen-binding fragments (Fabs), all proteins were expressed in mammalian cells and purified to homogeneity. Purified TIM-3 IgV domain and Fabs (one at a time) were incubated at a slight excess of IgV domain, followed by size exclusion purification of the complex. Crystallization of the complexes was performed at room temperature. The X-ray diffraction data was collected at the Stanford Synchrotron Radiation Lightsource (SSRL, Menlo Park, Calif., USA). Structures of the complexes were solved by molecular replacement.",
  "data": [
    {"binder": "Fab of anti-TIM3 antibody #62 (Fab, V domains shown, Fab expressed in mammalian cells for co-crystallisation; also called clone 62) VH: not shown VL: QTVLTQPPSVSVAPGKTASISCGGDNIGGKSVHWYQQKPGQAPVLVIYYDSDRPSGIPQRFSGSNSGNTATLTIHRVEAGDEADYYCQVLDRRSDHWLFGGGTKLTVL", "values": [
      {"measurement": "binding result", "value": "binds"}
    ]}
  ]
}
